Data as given in paper PMC10594996.

Columns and labels:
[1] = molecular target: human IgG (human); assay: SPR; BIAcore X100; Protein A immobilised on a CM5 chip (target 5000 RU); human or NHP IgG at 20 µg/ml captured on the test flow cell to 500 RU; various concentrations of recombinant human CD64 flowed at 10 µl/min; control flow cell with Protein A only; regeneration with 10 mM glycine pH 2.0
[2] = molecular target: NHP IgG (rhesus macaque serum IgG) (rhesus macaque (Macaca mulatta)); assay: SPR; BIAcore X100; Protein A immobilised on a CM5 chip ([…]

- Kd [1]: 21.9 nM
- Kd [2]: 162 nM
Substance: recombinant human CD64 receptor (from UniProt P12314 16-374)
